Reference: PMC3585964, “Tissue Inhibitor of Metalloproteinases-3 Peptides Inhibit Angiogenesis and Choroidal Neovascularization in Mice” (PLoS ONE, 2013)
“Also recorded” adds a separate entry of the source. Like-named read-outs stand apart in the source and are kept apart here. Ends that are not written are not given here. Peptide text beside a SMILES is read from it.

Assays:
[1] = target: VEGFR-2 (KDR/Fc chimera) binding to VEGF (Homo sapiens, UniProt P35968); assay: Competitive ELISA, binding of sVEGFR-2/Fc to immobilized VEGF
Protocol: (§1) 96 well EIA/RIA strip plates (COSTAR) were coated with 80 ng/ml recombinant VEGF overnight at 4°C, washed and blocked with blocking buffer (1% BSA and 5% sucrose) overnight at 4°C. Series of dilutions were prepared for recombinant proteins representing WT-TIMP-3, NT2:CT3 and N-T3 in PBS or synthetic peptides corresponding to T3-loop 5, T3-loop 6, T3-N or T3-tail peptides in 0.5 M Tris-HCl (pH 7.5). The diluents were mixed with 50 ng/ml recombinant human VEGFR-2 (KDR/Fc chimera, recombinant human VEGFR-1 (Flt-1)/Fc chimera (R&D Systems, Minneapolis, MN) or control human lgG (Sigma Aldrich, St Louis, MO). The mixtures were then added to the VEGF-coated well in a final volume of 100 µL in PBS and incubated for 2 hours at room temperature. Bound VEGFR-2 was detected by HRP-conjugated anti-human lgG(Fc specific) (1∶1000).

[2] = system: angiogenesis; VEGF binding to VEGFR-2; settings: cited from earlier work
From the text: Tissue inhibitors of metalloproteinases (TIMPs) constitute a family of four proteins (TIMP-1, TIMP-2, TIMP-3 and TIMP-4) that are endogenous inhibitors of […] and play a critical role in the maintenance of extracellular matrix (ECM) homeostasis. In general, all four TIMPs are broad-spectrum inhibitors of the MMP family, with some differences in specificity. […] Based on these studies we designed experiments t ... || Sorsby fundus dystrophy (SFD), an autosomal dominant, fully penetrant, degenerative disease of the macula, [25] is manifested by symptoms of night blindness or sudden loss of acuity, usually in the third to fourth decades of life due to submacular neovascularization, [27], [28], [29]. SFD is caused by specific mutations in the tissue inhibitor of metalloproteinases-3 (TIMP-3) gene, [31], [32], [33], [34], [35], [36], [37], most of which introduce an unpaired cysteine at the C-terminus of the protein. We have recently reported that S156C mutation in TI ...

[3] = system: VEGFR-1 (Flt-1)/Fc chimera binding to VEGF; assay: Competitive ELISA, binding of sVEGFR-1/Fc to immobilized VEGF; set-up: species or system human; settings: 50 ng/ml sVEGFR-1 (sFlt-1)
Protocol: as §1

[4] = read-out: IC50, inhibition of VEGF binding to sVEGFR-2/Fc chimera (recombinant proteins), competitive ELISA, 50 ng/ml human VEGFR-2/Fc, plate coated with 80 ng/ml VEGF, 2 h room temperature, proteins in PBS

VEGFR-2 (KDR/Fc chimera) binding to VEGF, sequence (P35968 with tags, fused parts or gaps limits assumed): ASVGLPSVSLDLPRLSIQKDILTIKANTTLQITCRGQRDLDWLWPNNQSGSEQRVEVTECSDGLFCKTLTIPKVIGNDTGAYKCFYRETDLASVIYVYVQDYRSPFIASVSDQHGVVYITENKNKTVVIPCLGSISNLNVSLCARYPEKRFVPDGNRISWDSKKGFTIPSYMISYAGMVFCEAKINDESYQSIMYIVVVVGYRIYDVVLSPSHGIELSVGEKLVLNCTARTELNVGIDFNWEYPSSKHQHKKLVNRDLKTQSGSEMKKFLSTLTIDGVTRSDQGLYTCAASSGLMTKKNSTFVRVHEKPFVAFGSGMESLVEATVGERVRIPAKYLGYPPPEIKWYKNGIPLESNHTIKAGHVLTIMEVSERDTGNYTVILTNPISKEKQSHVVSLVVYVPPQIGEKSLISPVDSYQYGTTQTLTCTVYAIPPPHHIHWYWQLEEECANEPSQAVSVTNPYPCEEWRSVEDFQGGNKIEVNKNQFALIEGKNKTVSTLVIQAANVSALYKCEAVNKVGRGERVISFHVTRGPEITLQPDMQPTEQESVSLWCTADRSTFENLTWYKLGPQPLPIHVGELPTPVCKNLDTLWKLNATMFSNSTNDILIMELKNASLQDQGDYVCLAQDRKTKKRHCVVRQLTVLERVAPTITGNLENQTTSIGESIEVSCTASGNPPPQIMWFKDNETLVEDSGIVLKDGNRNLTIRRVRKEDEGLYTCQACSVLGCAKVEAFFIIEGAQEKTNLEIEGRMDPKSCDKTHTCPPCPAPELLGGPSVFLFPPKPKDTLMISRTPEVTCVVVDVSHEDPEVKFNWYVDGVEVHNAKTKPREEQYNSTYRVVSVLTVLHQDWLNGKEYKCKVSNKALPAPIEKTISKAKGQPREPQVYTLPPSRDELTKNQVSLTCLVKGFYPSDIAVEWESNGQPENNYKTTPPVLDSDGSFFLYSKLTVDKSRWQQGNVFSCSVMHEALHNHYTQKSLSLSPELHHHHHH

## CC[C@H](C)[C@H](NC(=O)[C@H](CS)NC(=O)[C@H](C)NC(=O)[C@H](Cc1ccc(O)cc1)NC(=O)[C@H](Cc1c[nH]cn1)NC(=O)[C@H](CCCCN)NC(=O)[C@H](CO)NC(=O)[C@H](CCC(N)=O)NC(=O)[C@H](Cc1ccc(O)cc1)NC(=O)CNC(=O)[C@@H]1CCCN1C(=O)[C@H](Cc1ccc(O)cc1)NC(=O)CNC(=O)[C@H](Cc1ccccc1)NC(=O)[C@H](CC(N)=O)NC(=O)[C@H](CO)NC(=O)[C@H](CC(C)C)NC(=O)[C@H](CCSC)NC(=O)[C@H](CC(=O)O)NC(=O)[C@@H](NC(=O)[C@H](Cc1c[nH]c2ccccc12)NC(=O)[C@H](CC(C)C)NC(=O)[C@H](CS)NC(=O)[C@H](CCC(=O)O)NC(=O)[C@H](CC(N)=O)NC(=O)[C@@H](N)CCCCN)[C@@H](C)O)C(=O)N[C@@H](CCCNC(=N)N)C(=O)N[C@@H](CCC(N)=O)C(=O)N[C@@H](CCCCN)C(=O)NCC(=O)O [T3-loop 6] (H-KNECLWTDMLSNFGYPGYQSKHYACIRQKG-OH)
[1]
  IC50: 2000 nM

## GYCSWYRGWAPPDKSIINATDP [T3-tail]
[1]
  IC50: 5000 nM

B1: WT-TIMP-3: Full length, recombinant human TIMP-3 purified from stably transfected mouse myeloma cells (protein, UniProt P35625 1-211, looked up)
chain: MTPWLGLIVLLGSWSLGDWGAEACTCSPSHPQDAFCNSDIVIRAKVVGKKLVKEGPFGTLVYTIKQMKMYRGFTKMPHVQYIHTEASESLCGLKLEVNKYQYLLTGRVYDGKMYTGLCNFVERWDQLTLSQRKGLNYRYHLGCNCKIKSCYYLPCFVTSKNECLWTDMLSNFGYPGYQSKHYACIRQKGGYCSWYRGWAPPDKSIINATDP
modifications: full-length
notes: Full length, recombinant human TIMP-3 purified from stably transfected mouse myeloma cells
[2]; independent of MMP inhibitory activity, ref [8]
  Blocking of VEGF binding to VEGFR-2 / angiogenesis inhibition (literature): potent angiogenesis inhibitor
[2]; ref [8], [21], [22]
  Inhibition of angiogenesis independent of MMP inhibition (literature): Inhibition of angiogenesis
[1]; competitive ELISA, 50 ng/ml sVEGFR-2, proteins in PBS
  Effect of recombinant proteins on VEGF-VEGFR-2 complexes (in words): inhibit sVEGFR-2-VEGF complexes in a concentration-dependent manner; also recorded: markedly decreased
[1]; [4]
  IC50: 41 nM
[3]
  Effect of recombinant proteins on VEGF binding to VEGFR-1 (in words): unable to block sVEGFR-1-VEGF complexes; also recorded: neither full length WT-TIMP-3 nor COOH-terminal TIMP-3 blocked the binding of VEGF to VEGFR1

B2: S156C mutation in TIMP-3: TIMP-3 with the S156C mutation (Sorsby fundus dystrophy) (protein, UniProt P35625 24-211, looked up, variant S156C)
Metalloproteinase inhibitor 3: CTCSPSHPQDAFCNSDIVIRAKVVGKKLVKEGPFGTLVYTIKQMKMYRGFTKMPHVQYIHTEASESLCGLKLEVNKYQYLLTGRVYDGKMYTGLCNFVERWDQLTLSQRKGLNYRYHLGCNCKIKSCYYLPCFVTSKNECLWTDMLSNFGYPGYQCKHYACIRQKGGYCSWYRGWAPPDKSIINATDP
[2]; ref [18]
  Effect of TIMP-3 mutation on angiogenesis (literature): induces increased angiogenesis

B3: NT2:CT3: NH2-terminal TIMP-2: COOH-terminal TIMP-3 chimera (residues 1–126 of TIMP-2 and residues 122–188 of TIMP-3) (protein)
chain: CSCSPVHPQQAFCNADVVIRAKAVSEKEVDSGNDIYGNPIKRIQYEIKQIKMFKGPEKDIEFIYTAPSSAVCGVSLDVGGKKEYLIAGKAEGDGKMHITLCDFIVPWDTLSTTQKKSLNHRYQMGCCKIKSCYYLPCFVTSKNECLWTDMLSNFGYPGYQSKHYACIRQKGGYCSWYRGWAPPDKSIINATDP
modifications: Limits are in mature numbering (TIMP-2 offset +26, TIMP-3 offset +23); Methods print TIMP-2 1-127 and Results print 1-126; the Methods limit i
[1]; [4]
  IC50: 28 nM
